Experimental data from patent US20160177307.

Tested on: T1, VEGF-121 (Homo sapiens), P15692-9
T1 sequence: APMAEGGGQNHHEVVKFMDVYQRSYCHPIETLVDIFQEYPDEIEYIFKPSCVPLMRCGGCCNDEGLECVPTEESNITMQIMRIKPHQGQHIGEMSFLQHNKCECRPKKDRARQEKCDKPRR
Assay: filter

AGCCGTTCAAGTGCTTGTAGGATTTAAATGGA [4867-31_86]
Kd (P=Nap-dU, 2'-OMe A22): 6.21 nM

AGCCGTTCAAGTGCTTGTAGGATTTAAATGGA [4867-31_90]
Kd (P=Nap-dU, 2'-OMe A26): 2.85 nM

AGCCGTTCAAGTGCTTGTAGGATTTAAATGGA [4867-31_91]
Kd (P=Nap-dU, 2'-OMe A27): 0.35 nM

AGCCGTTCAAGTGCTTGTAGGATTTAAATGGA [4867-31_92]
Kd (P=Nap-dU, 2'-OMe A28): 8.87 nM

AGCCGTTCAAGTGCTTGTAGGATTTAAATGGA [4867-31_94]
Kd (P=Nap-dU, 2'-OMe G30): 0.21 nM

AGCCGTTCAAGTGCTTGTAGGATTTAAATGGA [4867-31_95]
Kd (P=Nap-dU, 2'-OMe G31): 0.19 nM

AGCCGTTCAAGTGCTTGTAGGATTTAAATGGA [4867-31_96]
Kd (P=Nap-dU, 2'-OMe A32): 0.13 nM

AGCCGTTCAAGTGCTTTAGGATTTAAATGGA [4867-31_98]
Kd (C3 spacer at 17, all P are NapdU, C3 at G17): 0.1 nM

CCCCCATCAGCCGTTCAAGTGCTTGTAGGATTTAAATGGAATTGGAGGA [4867-15_27]
Kd (P=Nap-dU, C3 spacer at 4): 0.4 nM

CCCTCATCAGCCGTTCAAGTGCTTGTAGGATTTAAATGGAATTGGAGGA [4867-15_28]
Kd (P=Nap-dU, C3 spacer at 5): 0.34 nM

CCCTCATCAGCCGTTCAAGTGCTTGTAGGATTTAAATGGAATTGGAGGA [4867-15_29]
Kd (P=Nap-dU, C3 spacer at 6): 0.2 nM

CCCTCCACAGCCGTTCAAGTGCTTGTAGGATTTAAATGGAATTGGAGGA [4867-15_31]
Kd (P=Nap-dU, C3 spacer at 8): 0.095 nM

CCCTCCATAGCCGTTCAAGTGCTTGTAGGATTTAAATGGAATTGGAGGA [4867-15_32]
Kd (P=Nap-dU, C3 spacer at 9): 0.079 nM

CCCTCCATCACCGTTCAAGTGCTTGTAGGATTTAAATGGAATTGGAGGA [4867-15_34]
Kd (P=Nap-dU, C3 spacer at 11): 0.14 nM

CCCTCCATCAGCCGTTAAGTGCTTGTAGGATTTAAATGGAATTGGAGGA [4867-15_40]
Kd (P=Nap-dU, C3 spacer at 17): 0.17 nM

CCCTCCATCAGCCGTTCAAGTCTTGTAGGATTTAAATGGAATTGGAGGA [4867-15_45]
Kd (P=Nap-dU, C3 spacer at 22): 3.5 nM

CCCTCCATCAGCCGTTCAAGTGCTTGAGGATTTAAATGGAATTGGAGGA [4867-15_50]
Kd (P=Nap-dU, C3 spacer at 27): 3.5 nM

CCCTCCATCAGCCGTTCAAGTGCTTGTAGATTTAAATGGAATTGGAGGA [4867-15_52]
Kd (P=Nap-dU, C3 spacer at 29): 0.2 nM

CCCTCCATCAGCCGTTCAAGTGCTTGTAGATTTAAATGGAATTGGAGGA [4867-15_53]
Kd (P=Nap-dU, C3 spacer at 30): 23 nM

CCCTCCATCAGCCGTTCAAGTGCTTGTAGGATTTAAATGAATTGGAGGA [4867-15_62]
Kd (P=Nap-dU, C3 spacer at 39): 53 nM

CCCTCCATCAGCCGTTCAAGTGCTTGTAGGATTTAAATGAATTGGAGGA [4867-15_63]
Kd (P=Nap-dU, C3 spacer at 40): 15 nM

CCCTCCATCAGCCGTTCAAGTGCTTGTAGGATTTAAATGGAATGGAGGA [4867-15_66]
Kd (P=Nap-dU, C3 spacer at 43): 0.11 nM

CCCTCCATCAGCCGTTCAAGTGCTTGTAGGATTTAAATGGAATGGAGGA [4867-15_67]
Kd (P=Nap-dU, C3 spacer at 44): 0.15 nM

CCCTCCATCAGCCGTTCAAGTGCTTGTAGGATTTAAATGGAATTGAGGA [4867-15_68]
Kd (P=Nap-dU, C3 spacer at 45): 0.32 nM

CCCTCCATCAGCCGTTCAAGTGCTTGTAGGATTTAAATGGAATTGAGGA [4867-15_69]
Kd (P=Nap-dU, C3 spacer at 46): 0.77 nM

CCCTCCATCAGCCGTTCAAGTGCTTGTAGGATTTAAATGGAATTGGAGA [4867-15_71]
Kd (P=Nap-dU, C3 spacer at 48): 0.24 nM

CCCTCCATCAGCCGTTCAAGTGCTTGTAGGATTTAAATGGAATTGGAGA [4867-15_72]
Kd (P=Nap-dU, C3 spacer at 49): 0.19 nM

CCCTCCATCAGCCGTTCAAGTGCTTGTAGGATTTAAATGGAATTGGAGG [4867-15_73]
Kd (P=Nap-dU, C3 spacer at 50): 0.17 nM

CCCTCCATCAGCCGTTCAAGTGCTTGTAGGATTTAAATGGAATTGGAGGA [4867-31_2 (4867-15_2, 50-mer)]
Kd (all P are NapdU, rest DNA, 50-mer parent): 0.15 nM

CCCTCCATCAGCCGTTCAAGTGCTTGTAGGATTTAAATGGAATTGGGGA [4867-15_70]
Kd (P=Nap-dU, C3 spacer at 47): 0.68 nM

CCCTCCATCAGCCGTTCAAGTGCTTGTAGGATTTAAATGGATTGGAGGA [4867-15_64]
Kd (P=Nap-dU, C3 spacer at 41): 0.22 nM

CCCTCCATCAGCCGTTCAAGTGCTTGTAGGATTTAAATGGATTGGAGGA [4867-15_65]
Kd (P=Nap-dU, C3 spacer at 42): 0.13 nM

CCCTCCATCAGCCGTTCAAGTGCTTGTGGATTTAAATGGAATTGGAGGA [4867-15_51]
Kd (P=Nap-dU, C3 spacer at 28): 1.6 nM

CCCTCCATCAGCCGTTCAAGTGCTTTAGGATTTAAATGGAATTGGAGGA [4867-15-49]
Kd (C3 spacer at 26 as stated in text numbering is nearby G (single V in SEQ:614), all P are NapdU, C3 spacer at G26 tolerated): 0.079 nM

CCCTCCATCAGCCGTTCAATGCTTGTAGGATTTAAATGGAATTGGAGGA [4867-15_43]
Kd (P=Nap-dU, C3 spacer at 20): 9.2 nM

CCCTCCATCAGCCGTTCAGTGCTTGTAGGATTTAAATGGAATTGGAGGA [4867-15_41]
Kd (P=Nap-dU, C3 spacer at 18): 13 nM

CCCTCCATCAGCCGTTCAGTGCTTGTAGGATTTAAATGGAATTGGAGGA [4867-15_42]
Kd (P=Nap-dU, C3 spacer at 19): 31 nM

CCCTCCATCAGCCTTCAAGTGCTTGTAGGATTTAAATGGAATTGGAGGA [4867-15_37]
Kd (P=Nap-dU, C3 spacer at 14): 30 nM

CCCTCCATCAGCGTTCAAGTGCTTGTAGGATTTAAATGGAATTGGAGGA [4867-15_35]
Kd (P=Nap-dU, C3 spacer at 12): 3.4 nM

CCCTCCATCGCCGTTCAAGTGCTTGTAGGATTTAAATGGAATTGGAGGA [4867-15_33]
Kd (P=Nap-dU, C3 spacer at 10): 0.12 nM

CCCTCCTCAGCCGTTCAAGTGCTTGTAGGATTTAAATGGAATTGGAGGA [4867-15_30]
Kd (P=Nap-dU, C3 spacer at 7): 0.11 nM

CCGTTAAAGTGCTTGTAGGATTTAAATGGA [4867-31_145]
Kd (P=Nap-dU): 3.08 nM

CCGTTCAAGTGCTTATAGGATTTAAATGGA [4867-31_148]
Kd (P=Nap-dU): 0.53 nM

CCGTTCAAGTGCTTCTAGGATTTAAATGGA [4867-31_149]
Kd (P=Nap-dU): 0.27 nM

CCGTTCAAGTGCTTGTAAGATTTAAATGGA [4867-31_151]
Kd (P=Nap-dU): 0.16 nM

CCGTTCAAGTGCTTGTACGATTTAAATGGA [4867-31_152]
Kd (P=Nap-dU): 0.32 nM

CCGTTCAAGTGCTTGTAGGATTTAAATGG [4867-31_143]
Kd (NapdU at 4,5,10,13,14,16,21,22,23,27, rest DNA, SB18T, 37 C, Table 13 gives 0.14 nM): 0.17 nM

CCGTTCAAGTGCTTGTAGGATTTAAATGG [4867-31_154]
Kd (NapdU at P, 2'-OMe 4): 5.9 nM

CCGTTCAAGTGCTTGTAGGATTTAAATGG [4867-31_155]
Kd (NapdU at P, 2'-OMe 5): 3.3 nM

CCGTTCAAGTGCTTGTAGGATTTAAATGG [4867-31_156]
Kd (NapdU at P, 2'-OMe 10): 0.68 nM

CCGTTCAAGTGCTTGTAGGATTTAAATGG [4867-31_157]
Kd (NapdU at P, 2'-OMe 13): 1.5 nM

CCGTTCAAGTGCTTGTAGGATTTAAATGG [4867-31_158]
Kd (NapdU at P, 2'-OMe 14): 1.7 nM

CCGTTCAAGTGCTTGTAGGATTTAAATGG [4867-31_159]
Kd (NapdU at P, 2'-OMe 16): 0.56 nM

CCGTTCAAGTGCTTGTAGGATTTAAATGG [4867-31_160]
Kd (NapdU at P, 2'-OMe 21): 1.5 nM

CCGTTCAAGTGCTTGTAGGATTTAAATGG [4867-31_161]
Kd (2'-OMe-NapU at 22, other P are NapdU, target taken as VEGF-121): 0.064 nM

CCGTTCAAGTGCTTGTAGGATTTAAATGG [4867-31_162]
Kd (2'-OMe-NapU at 23, other P are NapdU, target taken as VEGF-121): 8.9 nM

CCGTTCAAGTGCTTGTAGGATTTAAATGG [4867-31_163]
Kd (NapdU at P, 2'-OMe 27): 0.26 nM

CCGTTCAAGTGCTTGTAGGATTTAAATGG [4867-31_191]
Kd (NapdU at P, 2'-OMe 9,15,17,18,28,29 as printed): 0.1 nM

CCGTTCAAGTGCTTGTAGGATTTAAATGG [4867-31_409]
Kd (as 4867-31_192, PS 3' of 1, 3' inverted dT): 0.011 nM

CCGTTCAAGTGCTTGTAGGATTTAAATGG [4867-31_410]
Kd (as 4867-31_192, PS 3' of 2, 3' inverted dT): 0.016 nM

CCGTTCAAGTGCTTGTAGGATTTAAATGG [4867-31_411]
Kd (as 4867-31_192 plus PS 3' of G3, 3'-idT, 29259-fold loss from PS at G3): 320 nM

CCGTTCAAGTGCTTGTAGGATTTAAATGG [4867-31_412]
Kd (as 4867-31_192, PS 3' of 4, 3' inverted dT): 0.022 nM

CCGTTCAAGTGCTTGTAGGATTTAAATGG [4867-31_413]
Kd (as 4867-31_192, PS 3' of 5, 3' inverted dT): 0.015 nM

CCGTTCAAGTGCTTGTAGGATTTAAATGG [4867-31_414]
Kd (as 4867-31_192, PS 3' of 7, 3' inverted dT): 0.015 nM

CCGTTCAAGTGCTTGTAGGATTTAAATGG [4867-31_415]
Kd (as 4867-31_192, PS 3' of 8, 3' inverted dT): 0.011 nM

CCGTTCAAGTGCTTGTAGGATTTAAATGG [4867-31_416]
Kd (as 4867-31_192, PS 3' of 10, 3' inverted dT): 0.0093 nM

CCGTTCAAGTGCTTGTAGGATTTAAATGG [4867-31_417]
Kd (as 4867-31_192, PS 3' of 11, 3' inverted dT): 0.0094 nM

CCGTTCAAGTGCTTGTAGGATTTAAATGG [4867-31_420]
Kd (as 4867-31_192, PS 3' of 14, 3' inverted dT): 0.018 nM

CCGTTCAAGTGCTTGTAGGATTTAAATGG [4867-31_421]
Kd (as 4867-31_192, PS 3' of 16, 3' inverted dT): 0.015 nM

CCGTTCAAGTGCTTGTAGGATTTAAATGG [4867-31_422]
Kd (as 4867-31_192, PS 3' of 19, 3' inverted dT): 0.0095 nM

CCGTTCAAGTGCTTGTAGGATTTAAATGG [4867-31_423]
Kd (as 4867-31_192, PS 3' of 20, 3' inverted dT): 0.018 nM

CCGTTCAAGTGCTTGTAGGATTTAAATGG [4867-31_424]
Kd (as 4867-31_192, PS 3' of 21, 3' inverted dT): 0.011 nM

CCGTTCAAGTGCTTGTAGGATTTAAATGG [4867-31_425]
Kd (as 4867-31_192, PS 3' of 22 or 23 (printed P1-P2), 3' inverted dT): 0.016 nM
